Assay results reported in patent publication US20200277360A1 (UNIVERSITY OF MANCHESTER, published 2020).

Tests used:
C3b [1] = target: T1, C3b (human, UniProt P01024 23-667; P01024 749-1663); assay: Bio-Layer Interferometry
T1 construct: also called purified C3b

C3b [2] = target: C3b

T1 sequence (P01024 23-667 limits assumed, chain 1 of 2): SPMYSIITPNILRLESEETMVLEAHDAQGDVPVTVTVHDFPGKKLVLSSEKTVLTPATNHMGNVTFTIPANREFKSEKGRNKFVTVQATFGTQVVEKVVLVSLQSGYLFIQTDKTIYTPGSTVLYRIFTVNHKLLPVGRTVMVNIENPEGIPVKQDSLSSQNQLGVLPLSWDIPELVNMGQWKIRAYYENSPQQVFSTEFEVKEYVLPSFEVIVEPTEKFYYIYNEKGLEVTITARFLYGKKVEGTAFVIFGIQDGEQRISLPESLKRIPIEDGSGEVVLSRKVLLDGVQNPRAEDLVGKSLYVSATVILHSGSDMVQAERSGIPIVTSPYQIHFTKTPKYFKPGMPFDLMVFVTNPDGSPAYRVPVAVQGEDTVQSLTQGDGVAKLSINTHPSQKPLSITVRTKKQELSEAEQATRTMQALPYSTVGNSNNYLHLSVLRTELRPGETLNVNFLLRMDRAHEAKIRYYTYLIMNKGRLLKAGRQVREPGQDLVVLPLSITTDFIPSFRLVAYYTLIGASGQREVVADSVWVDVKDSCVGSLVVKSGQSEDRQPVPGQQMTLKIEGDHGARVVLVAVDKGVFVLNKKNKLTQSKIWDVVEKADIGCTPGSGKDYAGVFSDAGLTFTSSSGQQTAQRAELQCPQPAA
T1 sequence (P01024 749-1663 limits assumed, chain 2 of 2): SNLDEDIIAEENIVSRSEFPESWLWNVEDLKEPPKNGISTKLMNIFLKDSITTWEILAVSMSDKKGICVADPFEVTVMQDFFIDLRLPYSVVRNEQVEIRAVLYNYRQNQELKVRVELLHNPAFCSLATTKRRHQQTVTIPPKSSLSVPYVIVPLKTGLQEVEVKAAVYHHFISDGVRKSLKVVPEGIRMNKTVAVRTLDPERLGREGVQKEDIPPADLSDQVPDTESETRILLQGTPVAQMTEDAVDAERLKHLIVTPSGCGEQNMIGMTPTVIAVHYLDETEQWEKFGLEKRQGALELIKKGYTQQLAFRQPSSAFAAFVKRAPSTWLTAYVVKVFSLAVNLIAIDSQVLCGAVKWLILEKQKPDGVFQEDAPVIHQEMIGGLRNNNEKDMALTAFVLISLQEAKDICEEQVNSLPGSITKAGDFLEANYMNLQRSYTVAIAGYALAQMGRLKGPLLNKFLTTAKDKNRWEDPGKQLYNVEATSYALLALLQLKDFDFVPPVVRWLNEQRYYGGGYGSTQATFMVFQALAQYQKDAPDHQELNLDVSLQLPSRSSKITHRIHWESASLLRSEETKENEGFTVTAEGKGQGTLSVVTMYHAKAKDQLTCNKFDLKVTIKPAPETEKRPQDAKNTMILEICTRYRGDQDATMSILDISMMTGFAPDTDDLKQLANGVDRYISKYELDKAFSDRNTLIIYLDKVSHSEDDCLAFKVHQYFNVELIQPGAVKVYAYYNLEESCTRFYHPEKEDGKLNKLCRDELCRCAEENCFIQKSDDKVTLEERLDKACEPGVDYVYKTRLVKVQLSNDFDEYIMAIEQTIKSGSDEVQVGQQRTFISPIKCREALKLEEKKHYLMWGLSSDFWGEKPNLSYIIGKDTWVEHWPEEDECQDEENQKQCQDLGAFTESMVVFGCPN

B1: glycosylated chimeric FH-FI polypeptide (other)
chain: GSSGEDCNELPPRRNTEILTGSWSDQTYPEGTQAIYKCRPGYRSLGNIIMVCRKGEWVALNPLRKCQKRPCGHPGDTPFGTFTLTGGNVFEYGVKAVYTCNEGYQLLGEINYRECDTDGWTNDIPICEVVKCLPVTAPENGKIVSSAMEPDREYHFGQAVRFVCNSGYKIEGDEEMHCSDDGFWSKEKPKCVEISCKSPDVINGSPISQKIIYKENERFQYKCNMGYEYSERGDAVCTESGWRPLPSCEEGGGGSRGGGGSGGGGSIVGGKRAQLGDLPWQVAIKDASGITCGGIYIGGCWILTAAHCLRASKTHRYQIWTTVVDWIHPDLKRIVIEYVDRIIFHENYNAGTYQNDIALIEMKKDGNKKDCELPRSIPAAVPWSPYLFQPNDTCIVSGWGREKDNERVFSLQWGEVKLISNCSKFYGNRFYEKEMECAGTYDGSIDACKGDSGGPLVCMDANNVTYVWGVVSWGENCGKPEFPGVYTKVANYFDWISYHVGRPFISQYNV
modifications: N-glycans on the Complement Factor I proteolytic domain (glycosylated form)
notes: It consists of the Factor H co-factor region (CCPs 1-4), a G4S-R-(G4S)2 linker and the Factor I proteolytic domain; also called Chimera
Kd (C3b [1]): 5.21 nM

B2: deglycosylated chimeric FH-FI polypeptide (other)
chain: B1 chain
modifications: N-glycans removed with PNGase F under non-denaturing conditions
notes: It is not the N464Q/N494Q/N536Q mutant; also called dFH-FI; dChimera
Kd (C3b [1]): 47.6 nM

B3: Complement Factor I (protein)
chain 1: KVTYTSQEDLVEKKCLAKKYTHLSCDKVFCQPWQRCIEGTCVCKLPYQCPKNGTAVCATNRRSFPTYCQQKSLECLHPGTKFLNNGTCTAEGKFSVSLKHGNTDSEGIVEVKLVDQDKTMFICKSSWSMREANVACLDLGFQQGADTQRRFKLSDLSINSTECLHVHCRGLETSLAECTFTKRRTMGYQDFADVVCYTQKADSPMDDFFQCVNGKYISQMKACDGINDCGDQSDELCCKACQGKGFHCKSGVCIPSQYQCNGEVDCITGEDEVGCAGFASVTQEETEILTADMDAERRRIKSLLPKLSCGVKNRMHI
chain 2: IVGGKRAQLGDLPWQVAIKDASGITCGGIYIGGCWILTAAHCLRASKTHRYQIWTTVVDWIHPDLKRIVIEYVDRIIFHENYNAGTYQNDIALIEMKKDGNKKDCELPRSIPACVPWSPYLFQPNDTCIVSGWGREKDNERVFSLQWGEVKLISNCSKFYGNRFYEKEMECAGTYDGSIDACKGDSGGPLVCMDANNVTYVWGVVSWGENCGKPEFPGVYTKVANYFDWISYHVGRPFISQYNV
C3b alpha-chain breakdown (Instant Blue stained gel), with FHL-1 as co-factor (C3b [2]): It was possible to observe the breakdown of the α-chain of C3b in the presence of FHL-1 and FI

B4: Complement Factor H (other)
chain: EDCNELPPRRNTEILTGSWSDQTYPEGTQAIYKCRPGYRSLGNVIMVCRKGEWVALNPLRKCQKRPCGHPGDTPFGTFTLTGGNVFEYGVKAVYTCNEGYQLLGEINYRECDTDGWTNDIPICEVVKCLPVTAPENGKIVSSAMEPDREYHFGQAVRFVCNSGYKIEGDEEMHCSDDGFWSKEKPKCVEISCKSPDVINGSPISQKIIYKENERFQYKCNMGYEYSERGDAVCTESGWRPLPSCEEKSCDNPYIPNGDYSPLRIKHRTGDEITYQCRNGFYPATRGNTAKCTSTGWIPAPRCTLKPCDYPDIKHGGLYHENMRRPYFPVAVGKYYSYYCDEHFETPSGSYWDHIHCTQDGWSPAVPCLRKCYFPYLENGYNQNYGRKFVQGKSIDVACHPGYALPKAQTTVTCMENGWSPTPRCIRVKTCSKSSIDIENGFISESQYTYALKEKAKYQCKLGYVTADGETSGSITCGKDGWSAQPTCIKSCDIPVFMNARTKNDFTWFKLNDTLDYECHDGYESNTGSTTGSIVCGYNGWSDLPICYERECELPKIDVHLVPDRKKDQYKVGEVLKFSCKPGFTIVGPNSVQCYHFGLSPDLPICKEQVQSCGPPPELLNGNVKEKTKEEYGHSEVVEYYCNPRFLMKGPNKIQCVDGEWTTLPVCIVEESTCGDIPELEHGWAQLSSPPYYYGDSVEFNCSESFTMIGHRSITCIHGVWTQLPQCVAIDKLKKCKSSNLIILEEHLKNKKEFDHNSNIRYRCRGKEGWIHTVCINGRWDPEVNCSMAQIQLCPPPPQIPNSHNMTTTLNYRDGEKVSVLCQENYLIQEGEEITCKDGRWQSIPLCVEKIPCSQPPQIEHGTINSSRSSQESYAHGTKLSYTCEGGFRISEENETTCYMGKWSSPPQCEGLPCKSPPEISHGVVAHMSDSYQYGEEVTYKCFEGFGIDGPAIAKCLGEKWSHPPSCIKTDCLSLPSFENAIPMGEKKDVYKAGEQVTYTCATYYKMDGASNVTCINSRWTGRPTCRDTSCVNPPTVQNAYIVSRQMSKYPSGERVRYQCRSPYEMFGDEEVMCLNGNWTEPPQCKDSTGKCGPPPPIDNGDITSFPLSVYAPASSVEYQCQNLYQLEGNKRITCRNGQWSEPPKCLHPCVISREIMENYNIALRWTAKQKLYSRTGESVEFVCKRGYRLSSRSHTLRTTCWDGKLEYPTCAKR
notes: Positive control in the BLI assay; also called FH
Kd (C3b [1]): 583 nM

B5: Complement Factor H isoform FHL-1 (other)
chain: EDCNELPPRRNTEILTGSWSDQTYPEGTQAIYKCRPGYRSLGNVIMVCRKGEWVALNPLRKCQKRPCGHPGDTPFGTFTLTGGNVFEYGVKAVYTCNEGYQLLGEINYRECDTDGWTNDIPICEVVKCLPVTAPENGKIVSSAMEPDREYHFGQAVRFVCNSGYKIEGDEEMHCSDDGFWSKEKPKCVEISCKSPDVINGSPISQKIIYKENERFQYKCNMGYEYSERGDAVCTESGWRPLPSCEEKSCDNPYIPNGDYSPLRIKHRTGDEITYQCRNGFYPATRGNTAKCTSTGWIPAPRCTLKPCDYPDIKHGGLYHENMRRPYFPVAVGKYYSYYCDEHFETPSGSYWDHIHCTQDGWSPAVPCLRKCYFPYLENGYNQNYGRKFVQGKSIDVACHPGYALPKAQTTVTCMENGWSPTPRCIRVSFTL
notes: Positive control in the BLI assay; also called factor H-like protein 1
Kd (C3b [1]): 1170 nM
